This passage reports Kd, Ki and IC50 results from patent US20250340595A1 (published 2025).

Read-outs that look alike come from different tables or passages of the source. Starred links: 1 amine or outer side, 2 acyl side, 3 side chain; linkers in the order of their positions; H or OH if unused. Positions of bridges follow the written chain, without caps; N, C: chain ends. Non-standard residues stand in square brackets, D forms with d. No end group written: not given here. Fluorescein = fluorescein label on the C-terminal Lys side chain; TATA = O=C(CC[*:1])N1CN(C(=O)CC[*:2])CN(C(=O)CC[*:3])C1; TATB = O=C(C[*:1])N1CN(C(=O)C[*:2])CN(C(=O)C[*:3])C1; Tle = CC(C)(C)[C@H](N)C(=O)O; Sar = CNCC(=O)O

Experiment [1] has as its target T1, Recombinant cynomolgus TfR1, His6-tagged (a.a. 89-760) (cynomolgus, UniProt H9EXL1 89-760 (rhesus entry)).
T1 construct: range 89-760; same product number named for FP and SPR; also called Cyno TfR1; Acro Biosystems TFR-C524a
Briefly: SPR, TfR1 on chip.

The target in experiment [2] is T2, Recombinant human TfR1, His6-tagged (a.a. 89-760) (human, UniProt P02786 89-760).
T2 construct: range 89-760; captured and coupled on an NTA chip for SPR; also called transferrin receptor 1; CD71
The experiment can be described thus: SPR, TfR1 on chip.

In experiment [3] the target is T3, Human TfR1 protein (R&D Systems, 2474-TR or Acro Biosystems, CD1-H5243) (human, UniProt P02786 89-760). Briefly: FP competition, competitor BCY15768.
Experiment [4] addresses T3, Human TfR1 protein (R&D Systems, …). Briefly: FP competition, competitor BCY15768. The source holds these as a separate data set.
Experiment [5] concerns the target T1, Recombinant cynomolgus TfR1, …. The experiment can be described thus: FP competition, competitor BCY15768.
Experiment [6] deals with T3, Human TfR1 protein (R&D Systems, …). The experiment can be described thus: Alpha assay, competition with labelled transferrin.
The target of experiment [7] is T1, Recombinant cynomolgus TfR1, …. The experiment can be described thus: SPR, TfR1 on chip. The source holds these as a separate data set.
The target is the same in experiment [8]. The experiment can be described thus: FP direct binding.
Experiment [9] has the same target. The experiment can be described thus: FP competition table (Table 6).
In experiment [10] the target is T2, Recombinant human TfR1, His6-tagged …. The experiment can be described thus: SPR, TfR1 on chip. The source holds these as a separate data set.

T1 sequence (chain, as listed by the source): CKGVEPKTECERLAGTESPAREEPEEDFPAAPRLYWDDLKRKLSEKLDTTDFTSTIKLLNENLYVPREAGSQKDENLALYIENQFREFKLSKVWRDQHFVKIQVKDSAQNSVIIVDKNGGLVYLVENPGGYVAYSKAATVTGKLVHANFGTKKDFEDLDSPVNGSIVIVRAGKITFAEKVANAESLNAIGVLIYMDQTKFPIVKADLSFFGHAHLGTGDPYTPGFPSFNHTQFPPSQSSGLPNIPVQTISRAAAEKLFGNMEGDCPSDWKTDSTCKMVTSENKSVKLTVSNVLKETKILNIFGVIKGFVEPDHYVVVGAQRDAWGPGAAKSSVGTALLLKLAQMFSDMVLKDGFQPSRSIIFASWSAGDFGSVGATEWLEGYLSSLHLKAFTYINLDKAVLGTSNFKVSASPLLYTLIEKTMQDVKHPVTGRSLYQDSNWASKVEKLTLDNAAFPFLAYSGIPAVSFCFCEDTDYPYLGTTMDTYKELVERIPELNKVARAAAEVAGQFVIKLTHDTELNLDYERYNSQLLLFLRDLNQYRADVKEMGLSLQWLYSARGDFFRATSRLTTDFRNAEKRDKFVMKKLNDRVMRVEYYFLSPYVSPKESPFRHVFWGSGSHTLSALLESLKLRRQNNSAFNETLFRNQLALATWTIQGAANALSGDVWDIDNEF
T3 sequence (P02786 89-760 limits assumed): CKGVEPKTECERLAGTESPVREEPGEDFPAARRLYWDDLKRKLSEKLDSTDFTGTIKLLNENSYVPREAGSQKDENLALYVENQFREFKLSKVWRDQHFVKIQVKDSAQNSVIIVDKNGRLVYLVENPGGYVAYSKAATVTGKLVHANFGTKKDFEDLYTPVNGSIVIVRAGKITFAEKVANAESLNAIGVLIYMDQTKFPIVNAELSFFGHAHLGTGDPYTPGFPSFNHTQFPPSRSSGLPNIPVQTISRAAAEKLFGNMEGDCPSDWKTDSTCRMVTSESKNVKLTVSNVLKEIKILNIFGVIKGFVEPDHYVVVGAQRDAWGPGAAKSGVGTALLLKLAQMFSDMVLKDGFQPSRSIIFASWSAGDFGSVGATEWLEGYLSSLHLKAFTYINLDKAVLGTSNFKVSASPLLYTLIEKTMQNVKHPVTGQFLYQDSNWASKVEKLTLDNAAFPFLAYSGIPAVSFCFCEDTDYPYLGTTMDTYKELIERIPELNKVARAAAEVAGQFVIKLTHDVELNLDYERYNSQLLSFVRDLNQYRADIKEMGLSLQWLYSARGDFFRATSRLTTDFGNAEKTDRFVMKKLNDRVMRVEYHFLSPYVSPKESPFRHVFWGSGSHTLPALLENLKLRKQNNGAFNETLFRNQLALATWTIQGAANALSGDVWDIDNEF
T2 sequence (P02786 89-760 limits assumed): as above

In the case of ACSADDWLGCISWCA (3 Cys on TATB) [BCY13983], the Kd was 4580 µM in experiment [1] and 450 µM in experiment [2].

As to ACSADDWLGCISYCA (linker 2-10-14 via TATB) [BCY15471], the figures for the Kd in [1] and in experiment [2] were 4660 µM and 263 µM, respectively. Also, the Ki was 0.434 µM in experiment [3], 0.434 µM in experiment [4] and 4.66 µM in [5].

B1: BCY12452 (peptide)
peptide: ACREFFDTCGLAFIECA-NH2
modifications: linker 2-9-16 via TATA; N-terminus assumed
SMILES: CC[C@H](C)[C@@H]1NC(=O)[C@H](Cc2ccccc2)NC(=O)[C@H](C)NC(=O)[C@H](CC(C)C)NC(=O)CNC(=O)[C@@H]2CSCCC(=O)N3CN(CN(C3)C(=O)CCSC[C@@H](C(=O)N[C@@H](C)C(N)=O)NC(=O)[C@H](CCC(=O)O)NC1=O)C(=O)CCSC[C@H](NC(=O)[C@H](C)N)C(=O)N[C@@H](CCCNC(=N)N)C(=O)N[C@@H](CCC(=O)O)C(=O)N[C@@H](Cc1ccccc1)C(=O)N[C@@H](Cc1ccccc1)C(=O)N[C@@H](CC(=O)O)C(=O)N[C@@H]([C@@H](C)O)C(=O)N2
For B1, the IC50 in experiment [6] stood at 1.22 µM.

On to ACPPDSWQGCISYCA (linker 2-10-14 via TATB) [BCY13989], for which the Kd in experiment [1] was 3440 µM; in experiment [2], 376 µM; in experiment [7] it was around 11 µM. The Ki in [3] turned out to be 0.565 µM; in experiment [4], 0.565 µM; in experiment [5], 3.44 µM.

As to ACPQDAYLGCISWCA (linker 2-10-14 via TATB) [BCY15467], the results for the Kd in experiment [1] and in experiment [2] were 1580 µM and 29.5 µM, respectively. The molecule further returned a Ki in experiment [3] of 0.133 µM.

With ACSPDAHLGCISYCAXXXXXXK (3 Cys on TATB; [Sar6]; C-terminal Lys carries fluorescein) [BCY15768], the values for the Kd in experiment [8] and in experiment [7] were 0.707 µM and 3.8 µM, respectively. Moreover, in experiment [9], the Ki worked out at 1.07 µM.

As for ACPPDSWQGCISYCA[Sar][Sar][Sar][Sar][Sar][Sar]K(Fluorescein) (linker 2-10-14 via TATB) [BCY14476], the Kd in [8] was 3.65 µM.

Take ACALCNDWTLPWHHCA[Sar][Sar][Sar][Sar][Sar][Sar]K(Fluorescein) (linker 2-5-15 via TATA) [BCY12652]: the Kd in [8] was 0.098 µM.

As for ACALCNDWTLPWHHCA (3 Cys on TATA) [BCY12455], the Kd in experiment [1] was 42.4 µM; in experiment [2], 65.6 µM. For the same molecule, the IC50 in experiment [6] is 0.673 µM.

Consider ACPPDAHLGCISYCA (3 Cys on TATB) [BCY16048], for which the Kd in [7] is 1.28 µM. In addition, the Ki in experiment [5] was determined as 0.621 µM.

With ACSPDAHLGC[Tle]SYCA (linker 2-10-14 via TATB) [BCY16051], the Ki is 0.066 µM in experiment [3], 0.066 µM in experiment [4] and 0.482 µM in experiment [5]. For the same molecule, the Kd in [7] is 1.82 µM; in [10] it was 0.025 µM.

On to ACLEACYDGVYWYSCA (3 Cys on TATA) [BCY12454], for which, in experiment [6], the IC50 was 0.893 µM.

With ACSSDAYLGCISWCA (3 Cys on TATB) [BCY13986], the results for the Kd in [1] and in experiment [2] were 2590 µM and 132 µM, respectively.

Turning to ACSSDAYLGCISWCA[Sar][Sar][Sar][Sar][Sar][Sar]K(Fluorescein) (linker 2-10-14 via TATB) [BCY14475], the Kd in [8] came out at 2.62 µM.
